Laboratory results reported in publication PMC4417367.

Molecular target: EGFP-GR C683A, L687-690A (rat) (UniProt P06536)
Assay: co-IP

- percent decrease of the HSP90/GR ratio against wild type EGFP-GR: 62.7%
Substance: heat shock protein 90 (natural protein)
